US20180037638A1 (SORRENTO THERAPEUTICS, published 2018)

Experiments:
[1] = target: AIP1 (Staphylococcus aureus); test: cell-based or functional assay
[2] = target: AIP4 (Staphylococcus aureus); test: cell-based or functional assay

Row | Binder | Inhibition of AIP1 QS (IC50; nM), agr-driven YFP reporter strain USA300-LAC [1] [nM] | Inhibition of AIP4 QS (IC50; nM), agr-driven YFP reporter strain MnTG [2] [nM]
1 | C7 (antibody, V domains shown) VH: EVQLVQSGAEMKKPGASMKVSCKTSGYTFARKYMHWLRQAPGQGLEWMGIINPTGGTKSYAPKFQGRVTMTSDMSTNTVYMELNSLRSEDTAVYYCVSDDEEPVWGQGTMVTVSS VL: QSALTQPPSVSKGLRQTATLTCTGNSNNVGSQGAAWLQQHQGHPPKVLSYRNNNRPSGISERFSASRSGNTASLTITGLQPEDEGDYYCSAWDSSLSAPVFGGGTKLTVL | 110 | 86
2 | E7 (antibody, V domains shown) VH: EVQLVQSGAEVKKPGASVRVSCKTSGYSFTSYDINWVRQTTGQGLEWMGWVNPTSGSTGYAQKFQGRVTMTANTAINTAYMELRDLRSEDTAVYFCVRDVPFDPWGQGTLVTVSS VL: LQSVLTQPASVSGSPGQSITISCTGTSSDVGKYTFVSWYQQHPGKAPKVMVYEVNKRPLGVSPRFSGSKSGNTAYLTISGLQAEDEADYYCSSYTSSSTVVFGGGTKLTVL | 91.1 | 53.5
